Measured values published in patent US20260116991A1 (HAINAN SIMCERE ZAIMING PHARMACEUTICAL, published 2026).
Residue numbers refer to the chain shown, from its start. Each block holds one binder with its values, some of them ahead of it.

Experiments:
[1] = target: T1, human GPC3-His protein (human, UniProt P51654 25-559); experiment: ELISA, coated human GPC3, antibody 10 nM;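 note: plate coated with antigen at 1 µg/mL, antibodies bound 2 h at 37 °C, detected via HRP-conjugated secondary antibody and TMB substrate, absorbance read after acid stop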
T1 construct: Bought protein; also called human GPC3 protein; not shown: His tag

[2] = target: T2, GPC3 endogenously expressed on HepG2 cells (UniProt P51654 25-554); experiment: FACS on HepG2 cells;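 note: flow cytometric binding of chimeric antibodies to cells, read as mean fluorescence intensity, EC50 obtained by curve fitting of the MFI data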
T2 construct: whole, on cells
Protocol: (§1) The desired cells were expanded to a logarithmic growth phase in a T-75 cell culture flask, the medium was removed by pipetting, and the cells were washed twice with a PBS buffer, and digested with trypsin. Then a complete medium was added to stop the digestion, and the cells were blown into a single cell suspension. After counting, the cells were centrifuged, and the cell pellet was resuspended with an FACS buffer (PBS+2% fetal bovine serum) to 2×10⁶ cells/mL. The cell resuspension solution was added to a 96-well FACS reaction plate at 50 μl/well, and a chimeric antibody sample to be tested was added at 50 μl/well for incubation at 4° C. for 1 h. […] After the plate was centrifuged and washed 3 times with a PBS buffer, 100 μl of the resulting solution was assayed and analyzed by FACS (FACS Canto™, purchased from BD Biosciences). Data analysis was performed by software (FlowJo) to obtain the mean fluorescence intensity (MFI) of the cells. Then, analysis was performed by software (GraphPad Prism8), data were fitted, and EC₅₀ values were calculated.

[3] = target: T1, human GPC3-His protein; experiment: ELISA, coated human GPC3, antibody 1 nM;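 note: antigen coated at 1 µg/mL on 96-well plates, antibody bound for 2 h at 37 °C, detected with HRP-labeled secondary antibody and TMB, absorbance read at 450 nm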
Protocol: (§2) The specific method is described as follows: The antigen protein was diluted with PBS to a final concentration of 1 μg/mL, and the diluent was added to a 96-well ELISA plate at 50 μL/well. The plate was sealed with a plastic film and incubated at 4° C. overnight, washed twice with PBS the next day, and a blocking solution [PBS+2% (w/w) BSA] was added for blocking at room temperature for 2 h. […] After incubation at 37° C. for 2 h, the plate was washed 3 times with PBS. A horseradish peroxidase (HRP)-labeled secondary antibody (purchased from Merck, Cat. No. AP113P) was added for incubation at 37° C. for 1 h, and the plate was washed 5 times with PBS. A TMB substrate was added at 50 μL/well for incubation at room temperature for 10 min, then a stop solution (1.0M HCl) was added at 50 μL/well. An ELISA plate reader (Multimode Plate Reader, EnSight, purchased from Perkin Elmer) was used to read OD_{450 nm} values, with results as shown in Table 4 to Table 6, FIG. 1A, FIG. 1B, and FIG. 1C.

[4] = target: T1, human GPC3-His protein; experiment: ELISA, coated human GPC3, antibody 0.01 nM;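 note: Plate-bound antigen coated at 1 µg/mL, antibody incubated 2 h at 37 °C, binding detected by HRP-conjugated secondary antibody with TMB substrate, read as absorbance at 450 nm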
[5] = target: T1, human GPC3-His protein; experiment: ELISA, coated human GPC3, antibody 0.1 nM;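 note: antigen coated on 96-well plates at 1 µg/mL, antibody bound 2 h at 37 °C, detected with HRP-labeled secondary antibody and TMB substrate, acid-stopped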
[6] = target: T3, human GPC3 on CHO-K1-human GPC3 cells (clone CHOK1-hGPC3.2B5) (human, UniProt P51654 25-554); experiment: FACS on CHOK1-hGPC3.2B5 cells;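 note: flow cytometry binding of chimeric antibodies to the cells, read out as mean fluorescence intensity, with the half-maximal concentration derived by curve fitting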
T3 construct: whole, on cells; Stably transfected CHO-K1 clone 2B5
Protocol: as §1

[7] = target: T1, human GPC3-His protein; experiment: ELISA, coated human GPC3, antibody 100 nM;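 note: antibodies bound to antigen-coated 96-well plates (1 µg/mL), 2 h at 37 °C, detected with HRP-labelled secondary antibody and TMB substrate, absorbance read at 450 nm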
Protocol: as §2

[8] = target: T1, human GPC3-His protein; experiment: ELISA, coated human GPC3, antibody 0.001 nM
[9] = target: T1, human GPC3-His protein; experiment: ELISA, coated human GPC3, antibody 0.0001 nM
[10] = target: T4, polypeptide GC3pep (human); experiment: ELISA, GC3pep coated, antibody 1 nM;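 note: bound antibody detected with an HRP-conjugated secondary antibody and TMB substrate, reaction stopped with HCl, after 2 h binding at 37 °C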
T4 construct: also called membrane proximal polypeptide GC3pep
T4 peptide: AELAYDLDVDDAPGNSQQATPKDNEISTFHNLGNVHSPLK

[11] = target: T4, polypeptide GC3pep; experiment: ELISA, GC3pep coated, antibody 0.1 nM;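 note: antibody allowed to bind the coated plate 2 h at 37 °C, then detected via HRP-conjugated secondary antibody and TMB development for 10 min, stopped with HCl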
[12] = target: T4, polypeptide GC3pep; experiment: ELISA, GC3pep coated, antibody 100 nM;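 note: detection with an HRP-conjugated secondary antibody and TMB substrate, color reaction stopped with HCl before absorbance reading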
[13] = target: T4, polypeptide GC3pep; experiment: ELISA, GC3pep coated, antibody 10 nM;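 note: antibody bound to the coated peptide for 2 h at 37 °C, detected through an HRP-conjugated secondary antibody with TMB colour development stopped by acid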
Protocol: The plate was sealed with a plastic film and incubated at 4° C. overnight, washed twice with PBS the next day, and a blocking solution [PBS+2% (w/w) BSA] was added for blocking at room temperature for 2 h. […] After incubation at 37° C. for 2 h, the plate was washed 3 times with PBS. A horseradish peroxidase (HRP)-labeled secondary antibody (purchased from Merck, Cat. No. AP113P) was added for incubation at 37° C. for 1 h, and the plate was washed 5 times with PBS. A TMB substrate was added at 50 μL/well for incubation at room temperature for 10 min, then a stop solution (1.0M HCl) was added at 50 μL/well.

[14] = target: T4, polypeptide GC3pep; experiment: ELISA, GC3pep coated, antibody 0.01 nM;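 note: bound antibody detected with an HRP-conjugated secondary antibody and TMB substrate, color reaction stopped with HCl before reading absorbance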
[15] = target: T4, polypeptide GC3pep; experiment: ELISA, GC3pep coated, antibody 0.0001 nM
[16] = target: T4, polypeptide GC3pep; experiment: ELISA, GC3pep coated, antibody 0.001 nM

- OD450 nm [1]: 2.27 OD450
- EC50 [2]: 0.58 nM
- Max MFI [2]: 1150 MFI
- OD450 nm [3]: 2.28 OD450
- OD450 nm [4]: 0.3 OD450
- OD450 nm [5]: 1.27 OD450
- EC50 [6]: 1.1 nM
- Max MFI [6]: 1710 MFI
- OD450 nm [7]: 2.3 OD450
- OD450 nm [8]: 0.12 OD450
- OD450 nm [9]: 0.1 OD450
B1: F4.13.7 human-murine chimeric antibody (antibody, human IgG1, kappa, V domains shown)
VH: QVQLQQPGAELVKPGASVKLSCKASGYTFTNNWVHWVKQRPGQGLEWTGMIHPDSGSTIYNEKFQSKATLTVDKSSSTAYMQLSSLTSEDSAVYYCARGYYDSSSYYAMDYWGQGTSVTVSS
VL: NIQMTQTTSSLSASLGDRVTISCSASQGIFNYLNWYQQKPDGTVKLLIYYTSSLHSGVPSRFSGSGSGTDYSLTISNLEPEDIATYYCQQYSKLPWTFGGGTKLEIKR

- OD450 nm [10]: 0.05 OD450 nm
- OD450 nm [11]: 0.05 OD450 nm
- OD450 nm [12]: 0.06 OD450 nm
- OD450 nm [13]: 0.05 OD450 nm
- OD450 nm [14]: 0.05 OD450 nm
- OD450 nm [15]: 0.05 OD450 nm
- OD450 nm [16]: 0.05 OD450 nm
B2: F1.42.8 (antibody, human IgG1, kappa, V domains shown)
VH: HVQLQQPGAELVKPGASVKLSCKASGYTFTSYWMHWVRQRPGQGLEWIEMIHPNSGSTNYNEKFKSKATLTVDKSSSTAYMQLSSLTSEDSAVYYCARGNYNSSLYAMDYWGQGTSVTVSS
VL: B1 VL with N1D, F30S, T51A, S53N, D70A, K93I, W96Y
notes: human-murine chimeric antibody

- OD450 nm [1]: 1.43 OD450
- EC50 [2]: 0.85 nM
- Max MFI [2]: 1600 MFI
- OD450 nm [3]: 1.25 OD450
- OD450 nm [4]: 0.18 OD450
- OD450 nm [5]: 0.64 OD450
- EC50 [6]: 1.21 nM
- Max MFI [6]: 2810 MFI
- OD450 nm [7]: 1 OD450
- OD450 nm [8]: 0.11 OD450
- OD450 nm [9]: 0.09 OD450
B3: F4.26.1 human-murine chimeric antibody (antibody, human IgG1, kappa, V domains shown)
VH: QVQLKQSGPGLVQPSQSLSITCTVSGFSLTSYGVHWVRQSPGKGLEWLGVIWSSGNTDYNAVLISRLSIKKDDSKSQVFFKMNSPQVDDSAIYYCGRNGGWLLRGFMDFWGQGTSVTVSS
VL: DVVMTQTPLSLPVSLGDQASISCRSSQSLLHSNGNTYLHWYLQRSGQSPNLLIYKVSNRFSGVPDRFSGGGSGTDFTLKISRVEAEDLGIYFCSQSTHVPWTFGGGTKLEIKR

- OD450 nm [1]: 1.14 OD450
- EC50 [2]: 2.31 nM
- Max MFI [2]: 1710 MFI
- OD450 nm [3]: 1.37 OD450
- OD450 nm [4]: 0.15 OD450
- OD450 nm [5]: 0.46 OD450
- EC50 [6]: 3.25 nM
- Max MFI [6]: 2170 MFI
- OD450 nm [7]: 0.52 OD450
- OD450 nm [8]: 0.1 OD450
- OD450 nm [9]: 0.1 OD450
B4: F4.21.16 human-murine chimeric antibody (antibody, human IgG1, kappa, V domains shown)
VH: DVQLQESGPGLVKPSQSLSLTCSVTGYSITSGYYWNWIRQFPGNKLEWMGYISYDVTVNYNPSLKNRISITRDTSKNQFFLKLNSVTTEDTATYYCATITSVASMDHWGQGTSVTVSS
VL: DILMTQTPLSLPVSLGDQASISCRSSQNIVHRNGNTYLEWYLQKPGQSPKLLLYKVSNRFSGVPDRFSGSGSGTDFTLKISRVEAEDLGIYYCFQGSHFPFTFGSGTKLEIKR

- OD450 nm [1]: 2.23 OD450
- EC50 [2]: 0.92 nM
- Max MFI [2]: 14000 MFI
- OD450 nm [3]: 2.24 OD450
- OD450 nm [4]: 0.32 OD450
- OD450 nm [5]: 1.23 OD450
- EC50 [6]: 0.92 nM
- Max MFI [6]: 29400 MFI
- OD450 nm [7]: 2.45 OD450
- OD450 nm [8]: 0.12 OD450
- OD450 nm [9]: 0.11 OD450
B5: F2.92.1 human-murine chimeric antibody (antibody, human IgG1, kappa, V domains shown)
VH: QVQLQQSGAELVRPGASVKLSCKASGYIFSDYEIHWVKQTPVHGLECIGAVDPETGGTAYNQKFKGKATLTADKSSSTAYMELRSLTSEDSAVYFCTRFYSFAYWGQGTLVTVST
VL: DVVMTQTPLSLPVSLGDQGSISCRSSQSLVHSNGNTYLQWYLQKPGQSPKLLIYKVSNRFSGVPDRFSGSGSGTDFTLKISRVEAEDLGVYFCCQSTHVLPTFGGGTKLEIKR

- OD450 nm [1]: 2.41 OD450
- EC50 [2]: 0.83 nM
- Max MFI [2]: 4460 MFI
- OD450 nm [3]: 2.29 OD450
- OD450 nm [4]: 0.48 OD450
- OD450 nm [5]: 1.58 OD450
- EC50 [6]: 0.72 nM
- Max MFI [6]: 15000 MFI
- OD450 nm [7]: 2.44 OD450
- OD450 nm [8]: 0.15 OD450
- OD450 nm [9]: 0.13 OD450
B6: F3.54.12 human-murine chimeric antibody (antibody, human IgG1, kappa, V domains shown)
VH: QVQLQQSGAELVRPGASVKLSCKASGYTFTDYEMHWVKQTPVHGLEWIGAIDPETGNTAYIQKFKGKATLTTDKSSSTAYMELRSLTSEDSAVYYCTRFYSYSHWGQGTTLTVSS
VL: B5 VL with G19A, Q39H, G71S, C94S, S96N, L100P
